# Assay results published in publication PMC2782394.
# T1: ROS3 (Arabidopsis thaliana, UniProt Q9FGT1 1-748)
# T1 sequence: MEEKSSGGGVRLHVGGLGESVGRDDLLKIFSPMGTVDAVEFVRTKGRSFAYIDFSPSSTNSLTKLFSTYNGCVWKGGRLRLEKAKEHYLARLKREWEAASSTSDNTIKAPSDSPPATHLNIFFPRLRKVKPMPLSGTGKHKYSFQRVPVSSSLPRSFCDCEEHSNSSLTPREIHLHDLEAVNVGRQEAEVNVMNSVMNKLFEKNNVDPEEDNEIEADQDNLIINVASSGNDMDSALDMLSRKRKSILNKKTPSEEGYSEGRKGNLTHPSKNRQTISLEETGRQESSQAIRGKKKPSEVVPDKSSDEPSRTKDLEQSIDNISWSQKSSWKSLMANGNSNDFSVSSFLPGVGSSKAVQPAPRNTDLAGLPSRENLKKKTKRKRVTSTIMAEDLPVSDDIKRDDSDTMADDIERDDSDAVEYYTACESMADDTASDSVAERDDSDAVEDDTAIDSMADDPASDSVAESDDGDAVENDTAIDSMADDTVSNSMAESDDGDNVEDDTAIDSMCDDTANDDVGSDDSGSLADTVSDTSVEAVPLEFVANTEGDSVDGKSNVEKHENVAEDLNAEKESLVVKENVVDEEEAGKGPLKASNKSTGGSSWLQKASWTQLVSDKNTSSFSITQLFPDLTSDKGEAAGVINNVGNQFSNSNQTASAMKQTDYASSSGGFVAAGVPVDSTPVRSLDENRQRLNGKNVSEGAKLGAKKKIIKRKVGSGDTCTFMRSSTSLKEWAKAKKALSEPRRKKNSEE
# Target: T1, ROS3
# Assay: EMSA
row,Binder,binding result
1,UCGGGAGGGAAGCGGAUGGGGGCCG (ssRNA) [RNA (d) 25-nt],binds
2,GGGAGUCCGGAGACGUCGGCGGGGG (ssRNA) [RNA (c) 25-nt],binds
